Test results taken from patent US8541552.

Target: T1, LTα1β2 (human, UniProt P01374)
T1 chain 1: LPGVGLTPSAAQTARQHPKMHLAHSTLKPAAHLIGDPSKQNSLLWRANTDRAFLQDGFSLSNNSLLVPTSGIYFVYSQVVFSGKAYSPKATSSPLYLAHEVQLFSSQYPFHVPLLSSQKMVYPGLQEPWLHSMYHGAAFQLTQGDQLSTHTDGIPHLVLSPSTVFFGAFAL
T1 chain 2: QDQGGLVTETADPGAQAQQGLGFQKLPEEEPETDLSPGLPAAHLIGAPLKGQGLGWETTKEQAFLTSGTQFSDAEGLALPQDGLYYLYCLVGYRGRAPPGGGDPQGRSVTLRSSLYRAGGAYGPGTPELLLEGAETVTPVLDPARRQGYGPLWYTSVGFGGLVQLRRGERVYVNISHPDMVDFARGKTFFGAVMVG
Assay: ELISA

B1: TNFRII.Fc (protein)
chain: LPAQVAFTPYAPEPGSTCRLREYYDQTAQMCCSKCSPGQHAKVFCTKTSDTVCDSCEDSTYTQLWNWVPECLSCGSRCSSDQVETQACTREQNRICTCRPGWYCALSKQEGCRLCAPLRKCRPGFGVARPGTETSDVVCKPCAPGTFSNTTSSTDICRPHQICNVVAIPGNASMDAVCTSTSPTRSMAPGAVHLPQPVSTRSQHTQPTPEPSTAPSTSFLLPMGPSPPAEGSTGD
B1: no binding.
